From publication PMC11620640

target: SARS-CoV-2 Omicron BA.2 spike RBD (UniProt P0DTC2); assay: SPR

Row | Substance | Kd [nM]
1 | raccoon dog ACE2 (rdACE2), peptidase domain (PD), wild type (from UniProt B4XEP4) L24Q | 283
2 | raccoon dog ACE2 (rdACE2), peptidase domain (PD), wild type (from UniProt B4XEP4) E38D | 245
3 | raccoon dog ACE2 (rdACE2), peptidase domain (PD), wild type (from UniProt B4XEP4) R353K | 136
